Substrate in series [1]: ClCCCl
Briefly: ITC initial rates, steady-state fit with substrate inhibition. The class given is biochemical, Xanthobacter autotrophicus. To be noted: 100 mM glycine buffer, pH 8.6, 15 °C.

Substrate in series [2]: ClCCCl
Briefly: ITC initial rates, steady-state fit. The class given is biochemical, Xanthobacter autotrophicus. Conditions: 100 mM glycine buffer, pH 8.6, 15 °C.

B1: haloalkane dehalogenase (DhlA) (Xanthobacter autotrophicus) (protein)
chain: MINAIRTPDQRFSNLDQYPFSPNYLDDLPGYPGLRAHYLDEGNSDAEDVFLCLHGEPTWSYLYRKMIPVFAESGARVIAPDFFGFGKSDKPVDEEDYTFEFHRNFLLALIERLDLRNITLVVQDWGGFLGLTLPMADPSRFKRLIIMNACLMTDPVTQPAFSAFVTQPADGFTAWKYDLVTPSDLRLDQFMKRWAPTLTEAEASAYAAPFPDTSYQAGVRKFPKMVAQRDQACIDISTEAISFWQNDWNGQTFMAIGMKDKLLGPDVMYPMKALINGCPEPLEIADAGHFVQEFGEQVAREALKHFAETE
On to B1, for which, in series [1], the Km is 60 ± 10 µM and the kcat amounted to 0.27 ± 0.01 s⁻¹.

B2: haloalkane dehalogenase (DhlA) (Xanthobacter autotrophicus; L262V) (protein)
chain: MINAIRTPDQRFSNLDQYPFSPNYLDDLPGYPGLRAHYLDEGNSDAEDVFLCLHGEPTWSYLYRKMIPVFAESGARVIAPDFFGFGKSDKPVDEEDYTFEFHRNFLLALIERLDLRNITLVVQDWGGFLGLTLPMADPSRFKRLIIMNACLMTDPVTQPAFSAFVTQPADGFTAWKYDLVTPSDLRLDQFMKRWAPTLTEAEASAYAAPFPDTSYQAGVRKFPKMVAQRDQACIDISTEAISFWQNDWNGQTFMAIGMKDKVLGPDVMYPMKALINGCPEPLEIADAGHFVQEFGEQVAREALKHFAETE
On to B2, for which, in series [1], the Km stood at 250 ± 30 µM and the kcat is 0.25 ± 0.01 s⁻¹.

B3: haloalkane dehalogenase (DhlA) (Xanthobacter autotrophicus; F128L) (protein)
chain: MINAIRTPDQRFSNLDQYPFSPNYLDDLPGYPGLRAHYLDEGNSDAEDVFLCLHGEPTWSYLYRKMIPVFAESGARVIAPDFFGFGKSDKPVDEEDYTFEFHRNFLLALIERLDLRNITLVVQDWGGLLGLTLPMADPSRFKRLIIMNACLMTDPVTQPAFSAFVTQPADGFTAWKYDLVTPSDLRLDQFMKRWAPTLTEAEASAYAAPFPDTSYQAGVRKFPKMVAQRDQACIDISTEAISFWQNDWNGQTFMAIGMKDKLLGPDVMYPMKALINGCPEPLEIADAGHFVQEFGEQVAREALKHFAETE
In the case of B3, in series [1], the Km is 700 ± 30 µM and the kcat was determined as 0.05 ± 0.01 s⁻¹.

B4: haloalkane dehalogenase (DhlA) (Xanthobacter autotrophicus; F128L/L262V) (protein)
chain: MINAIRTPDQRFSNLDQYPFSPNYLDDLPGYPGLRAHYLDEGNSDAEDVFLCLHGEPTWSYLYRKMIPVFAESGARVIAPDFFGFGKSDKPVDEEDYTFEFHRNFLLALIERLDLRNITLVVQDWGGLLGLTLPMADPSRFKRLIIMNACLMTDPVTQPAFSAFVTQPADGFTAWKYDLVTPSDLRLDQFMKRWAPTLTEAEASAYAAPFPDTSYQAGVRKFPKMVAQRDQACIDISTEAISFWQNDWNGQTFMAIGMKDKVLGPDVMYPMKALINGCPEPLEIADAGHFVQEFGEQVAREALKHFAETE
As for B4, in series [2], the Km was found to be 1040 ± 60 µM and the kcat came to 0.18 ± 0.01 s⁻¹.

B5: haloalkane dehalogenase (DhlA) (Xanthobacter autotrophicus; F128L/L262I) (protein)
chain: MINAIRTPDQRFSNLDQYPFSPNYLDDLPGYPGLRAHYLDEGNSDAEDVFLCLHGEPTWSYLYRKMIPVFAESGARVIAPDFFGFGKSDKPVDEEDYTFEFHRNFLLALIERLDLRNITLVVQDWGGLLGLTLPMADPSRFKRLIIMNACLMTDPVTQPAFSAFVTQPADGFTAWKYDLVTPSDLRLDQFMKRWAPTLTEAEASAYAAPFPDTSYQAGVRKFPKMVAQRDQACIDISTEAISFWQNDWNGQTFMAIGMKDKILGPDVMYPMKALINGCPEPLEIADAGHFVQEFGEQVAREALKHFAETE
Regarding B5, in series [1], the Km was determined as 1080 ± 100 µM and the turnover number (kcat) amounted to 0.36 ± 0.02 s⁻¹.

One may read the Km as the substrate concentration at which the rate is half of its maximum. A word on the kcat: it is the maximal rate divided by the concentration of active sites.

The values above are taken from paper PMC12445222.
